According to paper doi:10.1101/718155 (2019):

B1: S100B (natural protein)
chain: MSELEKAMVALIDVFHQYSGREGDKHKLKKSELKELINNELSHFLEEIKEQEVVDKVMETLDNDGDGECDFQEFMAFVAMVTTACHEFFEHE

Tests used:
RSK1-CTKD = test: FP; competitive
FOR20 = test: FP; competitive
MK2 = test: FP; competitive
S100B [1] = molecular target: B1; test: ITC; 310 K
S100B [2] = molecular target: B1; test: ITC; 310 K; second site
S100B [3] = molecular target: B1; test: FP; competitive
S100A2 [4] = test: FP; direct
S100A1 [5] = test: FP; direct
S100A5 [6] = test: FP; direct
S100B [7] = molecular target: B1; test: FP; direct
S100A2 [8] = test: FP; competitive
S100A1 [9] = test: FP; competitive
S100A5 [10] = test: FP; competitive
S100A6 [11] = test: ITC; 310 K
S100P [12] = test: FP; competitive
S100A3 [13] = test: FP; competitive
S100A6 [14] = test: FP; competitive
S100A4 [15] = test: FP; competitive
S100P [16] = test: FP; direct
S100A6 [17] = test: FP; direct
S100A4 [18] = test: FP; direct
S100A5 [19] = test: ITC; 310 K
S100A11 [20] = test: FP; direct
S100A15 = test: FP; direct
S100G = test: FP; direct
S100A3 [21] = test: FP; direct
S100A14 = test: FP; direct
S100A7 = test: FP; direct
S100A1 [22] = test: ITC; 298 K
S100B [23] = molecular target: B1; test: ITC; 298 K
S100A10 [24] = test: FP; direct
S100A8 [25] = test: FP; direct
S100A9 = test: FP; direct
S100A11 [26] = test: FP; competitive
S100A10 [27] = test: FP; competitive
S100A8 [28] = test: FP; competitive
S100A13 = test: FP; direct
S100Z = test: FP; direct
S100A12 = test: FP; direct
S100A1 [29] = test: ITC; 310 K

| Binder | Kd (S100B [3]) [µM] | Kd (S100A2 [4]) [µM] | Kd (S100A1 [5]) [µM] | Kd (S100A5 [6]) [µM] | Kd (S100B [7]) [µM] | Kd (S100A2 [8]) [µM] | Kd (S100A1 [9]) [µM] | Kd (S100A5 [10]) [µM] | Kd (S100P [12]) [µM] | Kd (S100A6 [14]) [µM] | Kd (S100A4 [15]) [µM] | Kd (S100P [16]) [µM] | Kd (S100A6 [17]) [µM] | Kd (S100A4 [18]) [µM] | Kd (S100A11 [20]) [µM] | Kd (S100A3 [21]) [µM] | Kd (S100A14) [µM] | also measured |
| --- | --- | --- | --- | --- | --- | --- | --- | --- | --- | --- | --- | --- | --- | --- | --- | --- | --- | --- |
| B1 |  |  |  |  |  |  |  |  |  |  |  |  |  |  |  |  |  | Kd (RSK1-CTKD): 1.2 µM; Kd (FOR20): 0.25 µM; Kd (MK2): 3.2 µM |
| NQVRPKLPLLKILHAAGAQ [MDM4 (25-43) peptide] | 0.15 | 49 | 91 | 61 | 0.2 | 53 | 35 | 65 |  |  |  |  |  |  |  |  |  | Kd (S100B [1]): 0.71 µM; Kd (S100B [2]): 0.63 µM |
| MAATAAAVVAEEDTELRDLLVQTLENSGVLNRIKAELRAAVFLALEEQ [FOP (1-48) peptide] | 1.2 |  |  |  |  | 0.081 | 0.35 | 0.56 | 0.066 | 0.0056 | 0.048 |  |  |  |  |  |  | Kd (S100A6 [11]): 0.088 µM; Kd (S100A3 [13]): 0.27 µM |
| SEGLMNVLKKIYEDG [SIP (188-202) peptide] |  | 102 |  | 42 | > 200 |  |  | 40 |  | 20 | 11 | 38 | 8.7 | 42 |  |  |  | Kd (S100A5 [19]): 21 µM |
| RKLQRELEDATETADAMNREVSSLKNKLRRGDLPFVVPRRMARK [NMIIA (1894-1937) peptide] | 2.9 | 0.057 | 0.033 | 5.8 | 4.7 | 0.013 | 0.004 | 2.9 | 0.14 | 0.21 | 0.0088 | 0.99 | 0.58 | 0.026 | 49 | 5.5 | 98 | Kd (S100A15): 17 µM; Kd (S100G): 21 µM; Kd (S100A7): 13.1 µM; Kd (S100A1 [22]): 0.009 µM |
| GAMAATYSALNSSKPTPQLKPIESSILAQRRVRKLPSTTL [RSK1 (696-735) peptide] |  |  |  |  |  |  |  |  |  |  |  |  |  |  |  |  |  | Kd (S100B [23]): 12 µM |
| VLQTWLQDLLRRGLVRAAQ [TRPM4 (129-147) peptide] | > 200 | 1 | 0.38 | 0.6 | 16 | 1.1 |  | 2.3 |  | 8.4 | 35 | 0.93 | 1.4 | 5.9 | 2.4 | 0.91 | 12 | Kd (S100A10 [24]): 17 µM; Kd (S100A8 [25]): 3.8 µM; Kd (S100A9): 21 µM; Kd (S100A5 [19]): 1.4 µM; Kd (S100A11 [26]): 106 µM; Kd (S100A10 [27]): 125 µM; Kd (S100A8 [28]): 13 µM; Kd (S100A3 [13]): 3.4 µM |
| TRTKIDWNKILS [CapZ (265-276) peptide] | 1.8 |  | 8.9 | 4.7 | 2.3 |  | 5.2 | 5.4 | 4.1 |  |  | 11 |  |  |  |  |  | Kd (S100B [1]): 3.9 µM; Kd (S100B [2]): 0.94 µM |
| RRLLFYKYVYKR [NCX1 (254-265) peptide] | > 200 | 5.5 | 2.6 | 4.6 | 7.7 |  | 2.6 | 5.2 |  |  |  | 4 | 27 | 15 | 52 | 25 | 71 | Kd (S100A13): 87 µM; Kd (S100A15): 28 µM; Kd (S100A10 [24]): 53 µM; Kd (S100G): 24 µM; Kd (S100A8 [25]): 56 µM; Kd (S100A7): 30 µM; Kd (S100Z): 11 µM; Kd (S100A9): 20 µM; Kd (S100A12): 170 µM; Kd (S100A1 [29]): 6.4 µM |
